Article PMC7046147, “Impaired DNA-binding affinity of novel PAX6 mutations”

Legend:
Assay in all cases: ITC; ITC (iTC200) at 25 °C in buffer C (composition not given; protein stored in 25 mM Hepes pH 7.5, 150 mM NaCl, 5 mM b-ME); 20 uM protein in cell, 200 uM DNA in syringe, one-site model
PAX6 PD G72S = PAX6 PD G72S (human, UniProt P26367 4-136, G72S); details: protein: recombinant
PAX6 PD P76R = PAX6 PD P76R (human, UniProt P26367 4-136, P76R); details: protein: recombinant; 5' overhang 2 nt on each strand (AA/TT), 24 bp
Sequence of PAX6 PD P76R (P26367 4-136 P76R): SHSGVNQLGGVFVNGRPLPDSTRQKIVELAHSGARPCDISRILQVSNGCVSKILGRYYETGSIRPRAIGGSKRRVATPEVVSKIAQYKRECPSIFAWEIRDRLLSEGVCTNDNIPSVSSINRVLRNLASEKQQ

PAX6 paired domain WT = PAX6 paired domain WT (human, UniProt P26367 4-136); details: protein: recombinant, tags: N-terminal His6 removed by TEV
Sequence of PAX6 paired domain WT (P26367 4-136): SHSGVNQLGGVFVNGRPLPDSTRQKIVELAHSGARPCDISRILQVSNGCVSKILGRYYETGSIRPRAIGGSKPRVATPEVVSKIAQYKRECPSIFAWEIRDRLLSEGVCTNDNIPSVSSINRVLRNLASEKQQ

PAX6 PD S74G = PAX6 PD S74G (human, UniProt P26367 4-136, S74G); details: protein: recombinant
Sequence of PAX6 PD S74G (P26367 4-136 S74G): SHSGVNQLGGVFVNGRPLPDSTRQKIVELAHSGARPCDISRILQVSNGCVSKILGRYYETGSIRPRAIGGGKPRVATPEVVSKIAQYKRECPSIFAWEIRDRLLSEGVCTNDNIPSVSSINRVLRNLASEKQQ

PAX6 PD G64V = PAX6 PD G64V (human, UniProt P26367 4-136, G64V); details: protein: recombinant
Sequence of PAX6 PD G64V (P26367 4-136 G64V): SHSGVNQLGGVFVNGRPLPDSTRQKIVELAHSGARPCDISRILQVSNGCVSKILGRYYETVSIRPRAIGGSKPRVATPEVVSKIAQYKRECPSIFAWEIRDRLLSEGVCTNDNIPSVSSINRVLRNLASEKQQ

PAX6 PD G72C = PAX6 PD G72C (human, UniProt P26367 4-136, G72C); details: protein: recombinant, tags: N-terminal His6 removed by TEV
Sequence of PAX6 PD G72C (P26367 4-136 G72C): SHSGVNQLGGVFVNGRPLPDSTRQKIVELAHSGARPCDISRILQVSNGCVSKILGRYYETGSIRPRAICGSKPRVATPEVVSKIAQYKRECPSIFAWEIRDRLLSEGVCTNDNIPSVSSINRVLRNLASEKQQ

PAX6 PD G73D = PAX6 PD G73D (human, UniProt P26367 4-136, G73D); details: protein: recombinant
Sequence of PAX6 PD G73D (P26367 4-136 G73D): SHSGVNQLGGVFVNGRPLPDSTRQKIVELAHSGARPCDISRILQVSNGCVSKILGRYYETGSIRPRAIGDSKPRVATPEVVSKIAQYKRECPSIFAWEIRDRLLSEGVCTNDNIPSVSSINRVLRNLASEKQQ

[1] = 5' overhang 2 nt on each strand (AA/TT), 24 bp

Sequence of PAX6 PD G72S (P26367 4-136 G72S): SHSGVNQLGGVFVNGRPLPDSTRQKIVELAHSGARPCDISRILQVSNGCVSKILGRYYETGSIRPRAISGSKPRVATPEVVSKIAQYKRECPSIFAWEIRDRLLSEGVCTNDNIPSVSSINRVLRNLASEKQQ

| Binder | Kd (PAX6 PD G72S; [1]) [nM] | Kd (PAX6 PD P76R) [nM] | Kd (PAX6 paired domain WT; [1]) [nM] | Kd (PAX6 PD S74G; [1]) [nM] | Kd (PAX6 PD G64V; [1]) [nM] | Kd (PAX6 PD G72C; [1]) [nM] | Kd (PAX6 PD G73D; [1]) [nM] | Kd (PAX6 PD G72S; blunt) [nM] | Kd (PAX6 paired domain WT; blunt) [nM] | Kd (PAX6 PD S74G; blunt) [nM] | Kd (PAX6 PD G64V; blunt) [nM] | Kd (PAX6 PD G72C; blunt) [nM] | binding result (PAX6 PD G73D; blunt) | Kd (PAX6 PD G73D; blunt) [nM] |
| --- | --- | --- | --- | --- | --- | --- | --- | --- | --- | --- | --- | --- | --- | --- |
| P6B (dsDNA) DNA 1: AAGCATTTTCACGCATGAGTGCACAG DNA 2: TTCTGTGCACTCATGCGTGAAAATGC | 1200 ± 130 | 740 ± 93 | 411 ± 68 | 699 ± 180 | 2520 ± 1020 | 579 ± 370 | 489 ± 128 | – | – | – | – | – | – | – |
| CD19 A-ins (dsDNA) DNA 1: GAATGGGGCACTGAGGCGTGACCACCGC DNA 2: GCGGTGGTCACGCCTCAGTGCCCCATTC | – | – | – | – | – | – | – | 980 ± 43 | 952 ± 78 | 943 ± 31 | 2170 ± 162 | 5020 ± 360 | no binding | – |
| P6CON (dsDNA) DNA 1: AAATTTTCACGCTTGAGTTCACAGCT DNA 2: AGCTGTGAACTCAAGCGTGAAAATTT | – | – | – | – | – | – | – | 943 ± 37 | 925 ± 47 | 1040 ± 45 | 1290 ± 78 | 1410 ± 110 | – | 961 ± 48 |
